# Target: CD20 (B-lymphocyte antigen CD20) (human) (UniProt P11836)
# Assay: cell-based or functional assay
# Chain of CD20 (B-lymphocyte antigen CD20) (human) (P11836 whole entry): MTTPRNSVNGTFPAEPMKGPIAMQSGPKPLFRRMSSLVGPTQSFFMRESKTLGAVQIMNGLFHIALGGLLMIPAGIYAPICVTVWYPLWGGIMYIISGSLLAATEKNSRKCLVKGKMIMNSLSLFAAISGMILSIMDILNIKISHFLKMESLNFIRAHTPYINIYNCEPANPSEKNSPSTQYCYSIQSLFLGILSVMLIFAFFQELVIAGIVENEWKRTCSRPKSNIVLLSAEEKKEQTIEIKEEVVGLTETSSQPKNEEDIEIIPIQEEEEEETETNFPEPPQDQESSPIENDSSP
row,Substance,EC50 (ng/ml) values of direct cell death induction using Z-138 (% total AnnV positive cells) [ng/mL]
1,GA101-V11F P151F hinge del (on GA101 P329G L234A L235A backbone) (antibody),171
2,GA101-P151F P329G L234A L235A (antibody),133
3,GA101-V11F P151F (on GA101 P329G L234A L235A backbone) (antibody),112
4,GA101-V11F P329G L234A L235A (antibody),131
5,GA101-hinge del P329G L234A L235A (antibody),155
6,GA101-P151F hin del (on GA101 P329G L234A L235A backbone) (antibody),68.4
